Experimental data from patent US20250115656A1 (Stanford University, published 2025).

Biological target: the molecule itself
Test: cryo-EM in detergent; HS-AFM in lipid bilayer
Protocol: Briefly, for reconstituted lipids, we used a mixture of phospholipids, asolectin from soybean (Sigma-Aldrich, No. 11145). Asolectin (120 μg) was dissolved in chloroform and then evaporated under N2 gas to completely remove the solvent. Then, the lipids were suspended in 50 μL buffer A (20 mM HEPES-KOH pH 7.4, 100 mM NaCl, and 4% DDM) and sonicated for ˜1 min with a tip-sonicator. Next, dissolved membrane proteins (1 nmol) and MSP (50 μL, 1 mg/mL) (MSP1E3D1, Sigma-Aldrich, No. M7074) were added to the lipid suspension and mixed for ˜1 h while rotating in the dark at 4° C. Finally, we added 60 mg Bio-beads SM-2 (Bio-Rad, Hercules, CA, USA, No. 1523920) and dialyzed the samples in detergent overnight at 4° C. According to the manufacturer's protocol, nanodisc samples should be fractionated on a column to purify the nanodiscs based on size (˜10 nm in diameter).
A homemade HS-AFM operated in tapping mode was used (Shibata et al., 2017, 2018). An optical beam deflection detector detected the cantilever (Olympus, Tokyo, Japan: BL-AC10DS-A2) deflection using an infrared (IR) laser at 780 nm and 0.7 mW. The IR beam was focused onto the back side of the cantilever covered with a gold film through a ×60 objective lens (Nikon, Tokyo, Japan: CFI S Plan Fluor ELWD 60×). The reflected IR beam was detected by a two-segmented PIN photodiode. […]

B1: Wild-type ChRmine (M1-R304) (other)
chain: MAHAPGTDQMFYVGTMDGWYLDTKLNSVAIGAHWSCFIVLTITTFYLGYESWTSRGPSKRTSFYAGYQEEQNLALFVNFFAMLSYFGKIVADTLGHNFGDVGPFIIGFGNYRYADYMLTCPMLVYDLLYQLRAPYRVSCSAIIFAILMSGVLAEFYAEGDPRLRNGAYAWYGFGCFWFIFAYSIVMSIVAKQYSRLAQLAQDTGAEHSLHVLKFAVFTFSMLWILFPLVWAICPRGFGWIDDNWTEVAHCVCDIVAKSCYGFALARFRKTYDEELFRLLEQLGHDEDEFQKLELDMRLSSNGER
modifications: all-trans retinal covalently linked at K257 (Schiff base)
notes: Pump-like cation-conducting channelrhodopsin, purified from Sf9 cells in GDN/CHS detergent; It forms a homotrimer; The model covers residues 10-279; also called WT ChRmine; ChRmine WT
- binding result: binds
